Numbering of substitutions follows the chain as printed. Names may count otherwise.
B1: L1P1 C3: acrylodan-labeled rI-FABP mutein: Y14 M, L38 wt, L72 W, Y117 wt (protein, UniProt P02693 2-132, looked up, variant Y14M L72W)
Fatty acid-binding protein, …: AFDGTWKVDRNENMEKFMEKMGINVVKRKLGAHDNLKLTITQEGNKFTVKESSNFRNIDVVFELGVDFAYSWADGTELTGTWTMEGNKLVGKFKRVDNGKELIAVREISGNELIQTYTYEGVEAKRIFKKE
modifications: acrylodan label
B2: L2P8A6: acrylodan-labeled rI-FABP-L72A mutein: M18 I, G31 V, F55 V, A73 V (protein, UniProt P02693 2-132, looked up, variant M18I G31V F55V L72A A73V)
Fatty acid-binding protein, …: B1 Fatty acid-binding protein, … with M14Y, M18I, G31V, F55V, W72A, A73V
modifications: acrylodan label
B3: L2P9E12: acrylodan-labeled rI-FABP-L72A mutein: M18 L, G31 WT, F55 L, A73 I (protein, UniProt P02693 2-132, looked up, variant M18L F55L L72A A73I)
Fatty acid-binding protein, …: B1 Fatty acid-binding protein, … with M14Y, M18L, F55L, W72A, A73I
modifications: acrylodan label
notes: acrylodan-labeled rI-FABP-L72A mutein: M18 L, G31 WT, F55 L, A73 I
B4: L2P8B8: acrylodan-labeled rI-FABP-L72A mutein: M18 WT, G31 WT, F55 WT, A73 F (protein, UniProt P02693 2-132, looked up, variant L72A A73F)
Fatty acid-binding protein, …: B1 Fatty acid-binding protein, … with M14Y, W72A, A73F
modifications: acrylodan label
notes: acrylodan-labeled rI-FABP-L72A mutein: M18 WT, G31 WT, F55 WT, A73 F
B5: L2P1E6: acrylodan-labeled rI-FABP-L72A mutein: M18 L, G31 WT, F55 WT, A73 L (protein, UniProt P02693 2-132, looked up, variant M18L L72A A73L)
Fatty acid-binding protein, …: B1 Fatty acid-binding protein, … with M14Y, M18L, W72A, A73L
modifications: acrylodan label
B6: L1P17 A1: acrylodan-labeled rI-FABP mutein: Y14 I, L38 wt, L72 W, Y117 wt (protein, UniProt P02693 2-132, looked up, variant Y14I L72W)
Fatty acid-binding protein, …: B1 Fatty acid-binding protein, … with M14I
modifications: acrylodan label
B7: L2P8A5: acrylodan-labeled rI-FABP-L72A mutein: M18 V, G31 A, F55 W, A73 W (protein, UniProt P02693 2-132, looked up, variant M18V G31A F55W L72A A73W)
Fatty acid-binding protein, …: B1 Fatty acid-binding protein, … with M14Y, M18V, G31A, F55W, W72A, A73W
modifications: acrylodan label
B8: L2P12C5: acrylodan-labeled rI-FABP-L72A mutein: M18 I, G31 I, F55 M, A73 I (protein, UniProt P02693 2-132, looked up, variant M18I G31I F55M L72A A73I)
Fatty acid-binding protein, …: B1 Fatty acid-binding protein, … with M14Y, M18I, G31I, F55M, W72A, A73I
modifications: acrylodan label
B9: L2P23A4: acrylodan-labeled rI-FABP-L72A mutein: M18 V, G31 I, F55 L, A73 V (protein, UniProt P02693 2-132, looked up, variant M18V G31I F55L L72A A73V)
Fatty acid-binding protein, …: B1 Fatty acid-binding protein, … with M14Y, M18V, G31I, F55L, W72A, A73V
modifications: acrylodan label
B10: L2P21G3: acrylodan-labeled rI-FABP-L72A mutein: M18 I, G31 M, F55 M, A73 WT (protein, UniProt P02693 2-132, looked up, variant M18I G31M F55M L72A)
Fatty acid-binding protein, …: B1 Fatty acid-binding protein, … with M14Y, M18I, G31M, F55M, W72A
modifications: acrylodan label
notes: acrylodan-labeled rI-FABP-L72A mutein: M18 I, G31 M, F55 M, A73 WT
B11: L2P8F11: acrylodan-labeled rI-FABP-L72A mutein: M18 WT, G31 WT, F55 WT, A73 I (protein, UniProt P02693 2-132, looked up, variant L72A A73I)
Fatty acid-binding protein, …: B1 Fatty acid-binding protein, … with M14Y, W72A, A73I
modifications: acrylodan label
notes: acrylodan-labeled rI-FABP-L72A mutein: M18 WT, G31 WT, F55 WT, A73 I
B12: L2P22H10: acrylodan-labeled rI-FABP-L72A mutein: M18 I, G31 WT, F55 G, A73 M (protein, UniProt P02693 2-132, looked up, variant M18I F55G L72A A73M)
Fatty acid-binding protein, …: B1 Fatty acid-binding protein, … with M14Y, M18I, F55G, W72A, A73M
modifications: acrylodan label
notes: acrylodan-labeled rI-FABP-L72A mutein: M18 I, G31 WT, F55 G, A73 M
B13: L2P18H12: acrylodan-labeled rI-FABP-L72A mutein: M18 I, G31 V, F55 WT, A73 G (protein, UniProt P02693 2-132, looked up, variant M18I G31V L72A A73G)
Fatty acid-binding protein, …: B1 Fatty acid-binding protein, … with M14Y, M18I, G31V, W72A, A73G
modifications: acrylodan label
notes: acrylodan-labeled rI-FABP-L72A mutein: M18 I, G31 V, F55 WT, A73 G
B14: L2P7F4: acrylodan-labeled rI-FABP-L72A mutein: M18 V, G31 V, F55 WT, A73 I (protein, UniProt P02693 2-132, looked up, variant M18V G31V L72A A73I)
Fatty acid-binding protein, …: B1 Fatty acid-binding protein, … with M14Y, M18V, G31V, W72A, A73I
modifications: acrylodan label
notes: acrylodan-labeled rI-FABP-L72A mutein: M18 V, G31 V, F55 WT, A73 I
B15: L1P12 E11: acrylodan-labeled rI-FABP mutein: Y14 L, L38 wt, L72 W, Y117 wt (protein, UniProt P02693 2-132, looked up, variant Y14L L72W)
Fatty acid-binding protein, …: B1 Fatty acid-binding protein, … with M14L
modifications: acrylodan label
B16: L2P23G7: acrylodan-labeled rI-FABP-L72A mutein: M18 V, G31 F, F55 L, A73 WT (protein, UniProt P02693 2-132, looked up, variant M18V G31F F55L L72A)
Fatty acid-binding protein, …: B1 Fatty acid-binding protein, … with M14Y, M18V, G31F, F55L, W72A
modifications: acrylodan label
notes: acrylodan-labeled rI-FABP-L72A mutein: M18 V, G31 F, F55 L, A73 WT
B17: L2P22E6: acrylodan-labeled rI-FABP-L72A mutein: M18 V, G31 A, F55 I, A73 W (protein, UniProt P02693 2-132, looked up, variant M18V G31A F55I L72A A73W)
Fatty acid-binding protein, …: B1 Fatty acid-binding protein, … with M14Y, M18V, G31A, F55I, W72A, A73W
modifications: acrylodan label
notes: acrylodan-labeled rI-FABP-L72A mutein: M18 V, G31 A, F55 I, A73 W
B18: L2P16A3: acrylodan-labeled rI-FABP-L72A mutein: M18 I, G31 L, F55 WT, A73 G (protein, UniProt P02693 2-132, looked up, variant M18I G31L L72A A73G)
Fatty acid-binding protein, …: B1 Fatty acid-binding protein, … with M14Y, M18I, G31L, W72A, A73G
modifications: acrylodan label
notes: acrylodan-labeled rI-FABP-L72A mutein: M18 I, G31 L, F55 WT, A73 G
B19: L2P17H10: acrylodan-labeled rI-FABP-L72A mutein: M18 G, G31 F, F55 WT, A73 L (protein, UniProt P02693 2-132, looked up, variant M18G G31F L72A A73L)
Fatty acid-binding protein, …: B1 Fatty acid-binding protein, … with M14Y, M18G, G31F, W72A, A73L
modifications: acrylodan label
notes: acrylodan-labeled rI-FABP-L72A mutein: M18 G, G31 F, F55 WT, A73 L

assay: Probe fluorescence ratio response to arachidonate:BSA complex, relative to ADIFAB2 (ΔR/ΔRAD2); format: binding; conditions: fluorescence response (R-Ro) relative to ADIFAB2; arachidonate
Outline: (§1)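 Probe ratio shift relative to ADIFAB2, using FFA:BSA complexes that buffer unbound fatty acid at 100–1000 nM. Readings at 6 μM BSA in HEPES, background-corrected.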

| Molecule | ΔR/ΔRAD2 AA |
| --- | --- |
| B1 | −0.9 |
| B2 | 0.6 |
| B3 | 0.6 |
| B4 | 1.1 |
| B5 | 0.4 |
| B6 | −0.8 |
| B7 | 1.1 |
| B8 | 1.3 |
| B9 | 2.8 |
| B10 | 1.0 |
| B11 | 0.4 |
| B12 | 0.9 |
| B13 | 1.3 |
| B14 | 0.8 |
| B15 | −0.5 |
| B16 | 0.9 |
| B17 | 1.0 |
| B18 | 1.0 |
| B19 | 1.8 |

assay: Probe fluorescence ratio response to linolenate:BSA complex, relative to ADIFAB2 (ΔR/ΔRAD2); format: binding; conditions: fluorescence response (R-Ro) relative to ADIFAB2; linolenate
Outline: as §1

| Molecule | ΔR/ΔRAD2 LNA |
| --- | --- |
| B1 | −1.0 |
| B2 | 1.2 |
| B3 | 0.9 |
| B4 | 1.8 |
| B5 | 0.1 |
| B6 | −0.9 |
| B7 | 1.9 |
| B8 | 1.7 |
| B9 | 2.6 |
| B10 | 1.4 |
| B11 | 0.1 |
| B12 | 1.3 |
| B13 | 1.9 |
| B14 | 1.5 |
| B15 | −0.7 |
| B16 | 1.2 |
| B17 | 1.6 |
| B18 | 1.5 |
| B19 | 1.2 |

assay: Probe fluorescence ratio response to linoleate:BSA complex, relative to ADIFAB2 (ΔR/ΔRAD2); format: binding; conditions: fluorescence response (R-Ro) relative to ADIFAB2; linoleate
Outline: as §1

| Molecule | ΔR/ΔRAD2 LA |
| --- | --- |
| B1 | −1.1 |
| B2 | 0.8 |
| B3 | 0.7 |
| B4 | 1.2 |
| B5 | 0.1 |
| B6 | −1.0 |
| B7 | 1.6 |
| B8 | 1.5 |
| B9 | 3.1 |
| B10 | 1.1 |
| B11 | 0.0 |
| B12 | 1.1 |
| B13 | 1.7 |
| B14 | 1.1 |
| B15 | −0.7 |
| B16 | 1.0 |
| B17 | 1.3 |
| B18 | 1.1 |
| B19 | 1.5 |

assay: Probe fluorescence ratio response to oleate:BSA complex, relative to ADIFAB2 (ΔR/ΔRAD2); format: binding; conditions: fluorescence response (R-Ro) relative to ADIFAB2; oleate
Outline: as §1

| Molecule | ΔR/ΔRAD2 OA |
| --- | --- |
| B1 | −1.3 |
| B2 | 0.4 |
| B3 | 0.6 |
| B4 | 0.6 |
| B5 | 0.1 |
| B6 | −1.2 |
| B7 | 0.9 |
| B8 | 0.8 |
| B9 | 2.3 |
| B10 | 0.6 |
| B11 | 0.0 |
| B12 | 0.6 |
| B13 | 1.0 |
| B14 | 0.6 |
| B15 | −1.0 |
| B16 | 0.6 |
| B17 | 0.8 |
| B18 | 0.6 |
| B19 | 1.4 |

assay: Probe fluorescence ratio response to palmitate:BSA complex, relative to ADIFAB2 (ΔR/ΔRAD2); format: binding; conditions: fluorescence response (R-Ro) relative to ADIFAB2; palmitate
Outline: as §1

| Molecule | ΔR/ΔRAD2 PA |
| --- | --- |
| B1 | −0.4 |
| B2 | 1.0 |
| B3 | 1.1 |
| B4 | 1.1 |
| B5 | 0.0 |
| B6 | −0.4 |
| B7 | 1.5 |
| B8 | 1.5 |
| B9 | 1.9 |
| B10 | 1.1 |
| B11 | 0.0 |
| B12 | 1.1 |
| B13 | 1.6 |
| B14 | 1.3 |
| B15 | −0.1 |
| B16 | 1.0 |
| B17 | 1.3 |
| B18 | 1.1 |
| B19 | 1.0 |

assay: Probe fluorescence ratio response to palmitoleate:BSA complex, relative to ADIFAB2 (ΔR/ΔRAD2); format: binding; conditions: fluorescence response (R-Ro) relative to ADIFAB2

| Molecule | ΔR/ΔRAD2 POA |
| --- | --- |
| B2 | 1.3 |
| B3 | 0.8 |
| B4 | 2.4 |
| B5 | 0.1 |
| B7 | 2.0 |
| B8 | 1.9 |
| B9 | 2.8 |
| B10 | 1.4 |
| B11 | 0.1 |
| B12 | 1.2 |
| B13 | 2.1 |
| B14 | 1.3 |
| B16 | 1.4 |
| B17 | 1.6 |
| B18 | 1.4 |
| B19 | 1.2 |

assay: Probe fluorescence ratio response to stearate:BSA complex, relative to ADIFAB2 (ΔR/ΔRAD2); format: binding; conditions: fluorescence response (R-Ro) relative to ADIFAB2

| Molecule | ΔR/ΔRAD2 SA |
| --- | --- |
| B2 | 0.2 |
| B3 | 0.4 |
| B4 | 0.4 |
| B5 | 0.2 |
| B7 | 0.4 |
| B8 | 0.4 |
| B9 | 1.2 |
| B10 | 0.3 |
| B11 | 0.3 |
| B12 | 0.4 |
| B13 | 0.5 |
| B14 | 0.3 |
| B16 | 0.4 |
| B17 | 0.4 |
| B18 | 0.3 |
| B19 | 1.7 |
